Three molecules from article PMC3317677 (International Journal of Molecular Sciences, 2012) can be followed below.

Test [1] deals with T1, DENV1 envelope protein domain III (EDIII, aa295-395) (Dengue virus type 1, Hawaii, strain).
T1 construct: also called DENV1 EDIII; EDIII from DENV1
T1 chain: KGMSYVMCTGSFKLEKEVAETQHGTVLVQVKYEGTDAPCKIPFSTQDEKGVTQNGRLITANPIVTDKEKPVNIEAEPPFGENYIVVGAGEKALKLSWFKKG
Briefly: ELISA. Conditions: both partners purified. (In an ELISA, binding on a coated surface is turned into a signal by an enzyme label.)

Test [2] has as its target T2, DENV3 envelope protein domain III (EDIII, aa295-395) (Dengue virus type 3, …, UniProt P27915, strain).
T2 construct: also called DENV3 EDIII; EDIII from DENV3
Briefly: ELISA. As to conditions: both partners purified.

The target in test [3] is T3, DENV4 envelope protein domain III (EDIII, aa295-395) (Dengue virus type 4, …, UniProt Q58HT7, strain).
T3 construct: also called DENV4 EDIII; EDIII from DENV4
Briefly: ELISA. As to conditions: both partners purified.

In test [4] the target is DENV2 envelope (E) protein in DENV2 infected BHK-21 cells (Dengue virus type 2, GenBank EU081177.1, UniProt A9LIC9, strain). Briefly: immunostaining of cells or tissue. As to conditions: one partner purified.

Substitutions are numbered along the chain they refer to.

B1: C9 IgG (chimeric mouse/human IgG) (antibody, V domains shown)
VH: EVQLQQSGAELVRPGASVKLSCKALGYRFTDYEMYWVKQTPAHGLEWIGGIHPRSGNTAYNQKFKDKATLTADKSSSTAYMELSSLTSEDSAVYYCTTSLYWGQGTLVTVSA
VL: DVLMTQTPLSLPVILGDQASISCRSSQSLVHSNGNTYLHWYLQKPGQSPKLLIYSIFNRFSGVPDRFSGSGSGTDFTLKISRVEAEDLGVYFCSQGTHVPWTFGGGTKLEIK
notes: Bivalent IgG
For the molecule B1, the “fold stronger interaction than the C9 Fab (average)” value in test [1] and in test [2] was approximately 30 times throughout. In addition, the binding result is listed as “no binding” in test [3] and “binds” in test [4].

B2: F1 Fab (chimeric mouse/human Fab) (Fab, V domains shown)
VH: B1 VH with Q3K, Q5V, Q6E
VL: B1 VL with V2I, T7S, I14S, N33T, S55K, I56V, F57S, I111L
In the case of B2, the binding result in test [1] and in test [2] was “binds” throughout.

B3: C9 Fab (chimeric mouse/human Fab) (Fab, V domains shown)
VH: B1 VH
VL: B1 VL
Turning to B3, the binding result in test [3] is reported as “no binding”.
